# B1: wild-type mouse PADI6 (peptidyl arginine deiminase 6) (natural protein, UniProt Q8K3V4 1-682, looked up)
# chain: MSFQNSLSLSLVNPTHALCMVGMEITLDISKCAPDKCKSFTIRGSPRILIHISSSVIAGKEDTVVWRSMNHPTVALVRMVAPSPTVDEDKVLVSYFCPDQEVPTATAVLFLTGIEISLEADIYRDGQLDMPSDKQAKKKWMWGMNGWGAILLVNCSPNAVGQPDEQSFQEGPREIQNLSQMNVTVEGPTSILQNYQLILHTSEEEAKKTRVYWSQRGSSAYELVVGPNKPVYLLPTFENRRKEAFYVEATEFPSPSFSGLISLSLSLVEKAHDECIPEIPLYKDTVMFRVAPYIFMPSTQMPLEVYLCRELQLQGFVDSVTKLSEKSKVQVVKVYEDPNRQSKWLQDEMAFCYTQAPHKTVSLILDTPRVSKLEDFPMKYTLTPGSGYLIRQTEDHRVASLDSIGNLMVSPPVKAQGKDYPLGRVLIGGSFYPSSEGRDMNKGLREFVYAQQVQAPVELFSDWLMTGHMDQFMCFVPTNDKNNDQKDFRLLLASPSACFELFEQKQKEGYGNVTLFEDIGAEQLLSNGRESKTISQILADKSFREQNTYVEKCISLNRTLLKTELGLEDKDIILIPQLFCLEQLTNVPSNQQSTKLFARPYFPDMLQIIVLGKNLGIPKPFGPKINGTCCLEEKVCGLLEPLGLKCTFIDDFDCYLANIGDVCASAIINRVPFAFKWWKMTP
# B2: mouse PADI6 C663A (natural protein, UniProt Q8K3V4 1-682, looked up)
# chain: MSFQNSLSLSLVNPTHALCMVGMEITLDISKCAPDKCKSFTIRGSPRILIHISSSVIAGKEDTVVWRSMNHPTVALVRMVAPSPTVDEDKVLVSYFCPDQEVPTATAVLFLTGIEISLEADIYRDGQLDMPSDKQAKKKWMWGMNGWGAILLVNCSPNAVGQPDEQSFQEGPREIQNLSQMNVTVEGPTSILQNYQLILHTSEEEAKKTRVYWSQRGSSAYELVVGPNKPVYLLPTFENRRKEAFYVEATEFPSPSFSGLISLSLSLVEKAHDECIPEIPLYKDTVMFRVAPYIFMPSTQMPLEVYLCRELQLQGFVDSVTKLSEKSKVQVVKVYEDPNRQSKWLQDEMAFCYTQAPHKTVSLILDTPRVSKLEDFPMKYTLTPGSGYLIRQTEDHRVASLDSIGNLMVSPPVKAQGKDYPLGRVLIGGSFYPSSEGRDMNKGLREFVYAQQVQAPVELFSDWLMTGHMDQFMCFVPTNDKNNDQKDFRLLLASPSACFELFEQKQKEGYGNVTLFEDIGAEQLLSNGRESKTISQILADKSFREQNTYVEKCISLNRTLLKTELGLEDKDIILIPQLFCLEQLTNVPSNQQSTKLFARPYFPDMLQIIVLGKNLGIPKPFGPKINGTCCLEEKVCGLLEPLGLKCTFIDDFDCYLANIGDVAASAIINRVPFAFKWWKMTP
# Molecular target: the molecule itself
# Assay: mass photometry
row,Protein,stoichiometry N
1,B1,2
2,B2,2
